Columns and labels:
[1] = target: recombinant human CD39 ectodomain with C-terminal His6x tag (human) (UniProt P49961); test: BLI (Octet RED96), rabbit IgG hcAb on protein A biosensor, recombinant CD39 ectodomain as analyte at 200 ng/µl
human CD39 (gene ID 953) = target: T1, human CD39 (gene ID 953) (human, UniProt P49961 5-510); test: flow cytometry, rabbit IgG hcAb supernatant on transfected HEK cells
T1 construct: Cell-surface form: transiently or stably transfected HEK cells, PBMCs, AML cell lines; also called native CD39; human CD39 transfected HEK cells
T1 sequence: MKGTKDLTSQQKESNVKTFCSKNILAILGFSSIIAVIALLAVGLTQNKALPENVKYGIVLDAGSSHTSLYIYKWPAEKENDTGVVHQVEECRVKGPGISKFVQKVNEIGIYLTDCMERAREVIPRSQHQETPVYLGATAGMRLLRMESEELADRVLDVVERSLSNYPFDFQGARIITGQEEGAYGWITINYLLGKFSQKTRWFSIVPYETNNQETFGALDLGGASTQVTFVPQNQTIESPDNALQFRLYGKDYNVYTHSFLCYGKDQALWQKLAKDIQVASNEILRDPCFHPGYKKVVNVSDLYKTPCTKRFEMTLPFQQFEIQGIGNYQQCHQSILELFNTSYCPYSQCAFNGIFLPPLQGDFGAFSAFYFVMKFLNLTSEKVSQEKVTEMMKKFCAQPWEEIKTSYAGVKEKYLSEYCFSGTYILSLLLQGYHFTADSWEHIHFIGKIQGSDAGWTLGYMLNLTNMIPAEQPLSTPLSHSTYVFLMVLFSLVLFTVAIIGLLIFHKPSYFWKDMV

[2] = target: recombinant human CD39 ectodomain with C-terminal His6x tag (human) (UniProt P49961); test: BLI (Octet RED96), rabbit IgG hcAb on protein A biosensor, recombinant CD39 ectodomain as analyte

koff [1]: 0.00039 s⁻¹
binding result (human CD39 (gene ID 953)): binds
koff [2]: 0.0003 s⁻¹
B1: SB28 rabbit IgG hcAb (Fc fusion, not shown: a dimerising Fc or GST)
VHH: QVQLVESGGGLVQPGGSLRLSCAASGSIFNFNAMGWYRQAPGKQRELVAAITSGGSTNYADSVKGRFTISRDNAKNTVYLQMNSLKPEDTAVYYCHGIGGSTWFGEEEYDYWGQGTQVTVSS
notes: also called family 1
